Measured values from US20230399394A1 (SUNSHINE GUOJIAN PHARMACEUTICAL SHANGHAI, published 2023).

T1: Human IL-33-his (human, UniProt O95760 112-270, biotinylated with EZ-Link NHS-Biotin where used as IL-33-his-biotin)
T1 construct: Used plain (SPR, cell assays) and biotinylated (ELISA); also called IL-33-his-biotin
T1 sequence: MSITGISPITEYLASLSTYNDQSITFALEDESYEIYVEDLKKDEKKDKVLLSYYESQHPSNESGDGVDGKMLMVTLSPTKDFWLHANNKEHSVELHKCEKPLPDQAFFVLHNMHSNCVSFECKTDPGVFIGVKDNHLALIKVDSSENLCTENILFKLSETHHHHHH

T2: Cynomolgus IL-33-his (cynomolgus, UniProt A0A2K5W3I1 112-269, biotinylated in the ELISA of Example 6)
T2 construct: Bought protein; also called cynomolgus IL-33 protein; Cynomolgus monkeys IL-33
T2 sequence: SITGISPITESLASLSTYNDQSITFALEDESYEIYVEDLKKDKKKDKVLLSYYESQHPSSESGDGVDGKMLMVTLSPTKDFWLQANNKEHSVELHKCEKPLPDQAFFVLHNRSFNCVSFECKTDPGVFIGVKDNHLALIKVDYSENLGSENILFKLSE


Tests used:
[1] = target: T1, Human IL-33-his; test: ELISA, IL-33-his-biotin on streptavidin plate, anti-human Fc detection
Method: SA protein was diluted to 2 μg/mL to coat ELISA plate at 100 μL/well overnight at 4° C. The plate was washed with PBST (PBS containing 0.05% Tween20) for 3 times, and blocked with 2% BSA prepared in PBS at 200 μL/well, at room temperature for 2 h. After the plate was washed twice with PBST, IL-33-his-biotin protein was diluted to 1 μg/mL with 1% BSA prepared in PBST, and was added to ELISA plate at 100 μL/well. The plate was incubated at room temperature for 1 h, and each monoclonal antibody was diluted with 1% BSA prepared in PBST in a 3-fold gradient. The highest concentration of antibody was 10 μg/mL, and the antibody was diluted for 12 gradients. Each diluted monoclonal antibody was added to ELISA wells with 100 μL/well, and the plate was incubated at room temperature for 1 h. Each sample was added to duplicate wells in parallel. The plate was washed with PBST for 3 times, and HRP-anti human IgG Fc secondary antibody prepared with PBST was diluted at an appropriate ratio, and was added to ELISA wells at 100 μL/well. The plate was incubated at room temperature for 1 h. After washing with PBST for 3 times, TMB developing solution was added at 100 μL/well. When the development met expectations, 2M H₂SO₄ was added to terminate the chromogenic reaction at 70 μL/well. Each reaction solution was shaken uniformly and OD450 nm was read on a microplate reader. The data was analyzed and EC₅₀ was calculated.

[2] = target: T1, Human IL-33-his; test: competition ELISA, antibody mixed with IL-33-his-biotin, ST2-Fc on plate; competitor ST2-Fc
Method: (§1) ST2-Fc protein was diluted to 1 μg/mL with ELISA coating solution to coat ELISA plate with 100 μL/well. The plate was placed in a wet box at 4° C. for 16 h for coating. The ELISA plate was washed 3 times with PBST, and then was blocked with 2% BSA prepared in PBS at 200 μL/well at room temperature for 2 h. The plate was washed once with PBST, and was patted dry to remove the excess blocking solution. Each monoclonal antibody was diluted with 1% BSA prepared in PBST in a 3-fold gradient. The highest concentration of antibody was 10 μg/mL, and the antibody was diluted for 11 gradients. The diluted antibody was mixed 1:1 with 10 ng/ml IL-33-his-biotin, and then the mixture was added into the ELISA well at 100 μL/well. The plate was incubated at room temperature for 1 h. Each concentration was added to duplicate wells in parallel (maximum final concentration of antibody was […], final concentration of IL-33-his-biotin was 5 ng/mL). Unbound or non-specifically bound primary antibodies were washed out. According to the instructions of the antibody, HRP labeled streptavidin secondary antibody was diluted to an appropriate concentration with antibody diluent solution, then it was added to ELISA plate with 100 μL/well, and was incubated at room temperature for 1 h. The ELISA plate was washed with PBST for 5 times, and was patted dry on absorbent paper to remove excess liquid. TMB developing solution was added with 100 μL/well for development to an appropriate degree. 2M H₂SO₄ was added with 70 μL/well to terminate development, and the absorbance was measured at 450 nm on a multifunctional microplate reader. The data were analyzed.

[3] = target: T1, Human IL-33-his; test: competition ELISA: antibody mixed with IL-33-his-biotin, added to an ST2-Fc-coated plate, HRP-streptavidin; blocked ligand ST2-Fc
Method: as §1, with “According to the instructions of the antibody, HRP labeled streptavidin secondary antibody was diluted to an appropriate concentration with antibody diluent solution, then it was added to ELISA plate with 100 μL/well, and was incubated at room temperature for 1 h. The ELISA plate was washed with PBST for 5 times, and was patted dry on absorbent paper to remove excess liquid. TMB developing solution was added with 100 μL/well for development to an appropriate degree.” left out

[4] = target: T1, Human IL-33-his; test: cell-based or functional assay
[5] = target: T1, Human IL-33-his; test: indirect ELISA, biotinylated IL-33-his on streptavidin plate
Method: The binding ability of murine antibody to human IL-33 protein was determined by indirect enzyme-linked immunosorbent assay (ELISA). The specific methods were as follows: The plate was pre-coated with biotin-avidin (SA) which was diluted in coating solution (50 mM carbonate coating buffer, pH 9.6) to 2 μg/ml at 4° C. overnight, then the plate was blocked with 5% skim milk powder at 37° C. for 2 hours and stored at −80° C. for later use. Biotinylated recombinant human IL-33-his protein was diluted to 0.5 μg/ml in coating solution (50 mM carbonate coating buffer, pH 9.6) and was added at 100 μl/well to the pre-coated SA plate, 37° C., 0.5 h. After washing the plate with PBST for 3 times, the antibodies to be tested were diluted by gradient with 1% BSA buffer and added into the blocked plate at 100 μl/well, and incubated at 37° C. for 1 hour. The plate was washed with PBST for 3 times, and the HRP-labeled goat anti-mouse IgG was added and placed at 37° C. for 30 min. After washing the plate with PBST for 3 times, the plate was patted on the absorbent paper to remove residual droplets as far as possible. […] OD values were read at 450 nm on the microplate reader to analyze the binding ability of the antibodies to be tested to the target antigen human IL-33-his.

[6] = target: T2, Cynomolgus IL-33-his; test: indirect ELISA, biotinylated cynomolgus IL-33-his on streptavidin plate
Method: The binding ability of murine antibody to cynomolgus IL-33 was determined by indirect enzyme-linked immunosorbent assay (ELISA). The specific methods were as follows: The plate was pre-coated by biotin-avidin (SA) which was diluted in coating solution (50 mM carbonate coating buffer, pH 9.6) to 2 μg/ml at 4° C. overnight. The plate was blocked with 5% skim milk powder at 37° C. for 2 hours, and stored at −80° C. for later use. Biotinylated recombinant cynomolgus IL-33-his protein was diluted to 1 μg/ml in coating solution (50 mM carbonate coating buffer, pH 9.6) and was added at 100 μl/well to the pre-coated SA plate for 0.5 h at 37° C. After washing the plate with PBST for 3 times, the antibodies to be tested were diluted by gradient with 1% BSA buffer and added into the blocked plate with 100 μl/well, and incubated at 37° C. for 1 hour. The plate was washed with PBST for 3 times, and the HRP-labeled goat anti-mouse IgG was added and placed at 37° C. for 30 min. After washing the plate with PBST for 3 times, the plate was patted on the absorbent paper to remove residual droplets as far as possible. […] OD values were read at 450 nm on the microplate reader to analyze the binding ability of the antibody to the target antigen cynomolgus IL-33-his.

[7] = target: T1, Human IL-33-his; test: competition ELISA, antibody mixed with IL-33-his-biotin, ST2 on plate; competitor ST2
Method: ST2 is the only receptor for IL-33 that has been discovered so far. As a cytokine, IL-33 exerts its physiological function depending on ST2 signaling pathway, and the blocking activity of antibody can reflect the neutralizing activity thereof. The specific method was as follows: the plate was coated with 2 μg/ml ST2 PBS solution at 4° C. overnight; the plate was washed with PBST for 3 times, then the plated was blocked with 5% skim milk powder at 37° C. for 2 hours; the plate was washed with PBST for 3 times for later use. 20 ng/ml IL-33-his-biotin antigen diluted by 1% BSA was mixed with antibodies to be tested diluted by gradient with 1% BSA at 1:1 equal volume and incubated at 37° C. for […]. The mixture was added to a pre-coated ST2 plate and incubated at 37° C. for 1 h. The plate was washed with PBST for 3 times. HRP-labeled streptavidin secondary antibody was added at 1:8000 and incubated at 37° C. for 0.5 hours. After washing the plate with PBST for 3 times, the plate was patted on the absorbent paper to remove residual droplets as far as possible. 100 μl TMB was added to each well, and the plate was placed at room temperature (20±5° C.) for 5 minutes away from light; 50 μl 2M H₂SO₄ terminating solution was added to each well to terminate the substrate reaction. OD values were read at 450 nm on the microplate reader.

EC50 [1] | IC50 [2] | IC50 (read off the curve) [3] | IC50 of inhibition of IL-33-induced IL-6 expression in HUVEC cells [4] | IC50 of inhibition of IL-33-induced IL-8 expression in HUVEC cells [4] | EC50 [5] | EC50 [6] | IC50 [7] | Binder
127 pM | 45200 pM | ~6000 pM | – | – | – | – | – | 864F3-ch1 (antibody, human IgG4 S228P, kappa, V domains shown, Chimeric: murine variable regions on human IgG4 (S228P) and human kappa constant regions; also called chimeric antibody 864F3-ch1) VH: QVQLKESGPGLVAPSQSLSITCTVSGFSLTNYGVHWVRLPPGKGLEWLGVIRAGGSSDYNSALMSRLNIRKDNSKSQVFLEMNSLQTADTAMYYCARDHYFSNSYGGSPYWGQGTLVTVSA VL: DIQMTQSPASQSASLGESVTITCLASQTIATWLAWYQQKPGKSPQLLIYAATRLADGVPSRFSGSGSGTEFSFKISSLQAEDFVIYYCQQLYNTPYTFGGGTKLEIKR
– | – | – | 1660 pM | 160 pM | 140 pM | 40 pM | 740 pM | 871G1 (antibody, V domains shown, Murine hybridoma antibody; also called murine antibody 871G1) VH: QVHLKESGPGLVAPSQSLSITCNVSGFSLSKYGVHWIRQTPGRGLDWLGVLRAGGTISYNSALMSRLSISEDISKSQVFLKMNDLQTDDSAIYFCARDHYYYSSFGGFASWGQGTLVTVSA VL: DIQMTQSPASQSASLGESVTITCLASQTIGAWLAWYRQQPGKSPQLLIYAATRLADGVPSRFSGSGSGTKFSFKINNLQAEDFVIYYCQQLNSTPYTFGGGTRLEM
